# T1: Use1 purified from bacteria
# T1 chain: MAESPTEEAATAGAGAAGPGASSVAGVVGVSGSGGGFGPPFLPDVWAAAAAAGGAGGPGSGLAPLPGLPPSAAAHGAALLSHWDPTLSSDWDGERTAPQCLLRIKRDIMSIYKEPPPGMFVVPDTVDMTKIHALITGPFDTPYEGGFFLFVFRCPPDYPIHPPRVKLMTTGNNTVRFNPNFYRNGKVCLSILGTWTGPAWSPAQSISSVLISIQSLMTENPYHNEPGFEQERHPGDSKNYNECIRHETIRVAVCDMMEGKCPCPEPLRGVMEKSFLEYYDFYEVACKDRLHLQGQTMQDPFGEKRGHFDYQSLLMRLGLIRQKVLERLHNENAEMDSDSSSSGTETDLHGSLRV
# Tests used:
# [1] = target: T1, Use1 purified from bacteria
# Chain of GST-Ub, P0CG48 (P0CG48 whole entry, looked up): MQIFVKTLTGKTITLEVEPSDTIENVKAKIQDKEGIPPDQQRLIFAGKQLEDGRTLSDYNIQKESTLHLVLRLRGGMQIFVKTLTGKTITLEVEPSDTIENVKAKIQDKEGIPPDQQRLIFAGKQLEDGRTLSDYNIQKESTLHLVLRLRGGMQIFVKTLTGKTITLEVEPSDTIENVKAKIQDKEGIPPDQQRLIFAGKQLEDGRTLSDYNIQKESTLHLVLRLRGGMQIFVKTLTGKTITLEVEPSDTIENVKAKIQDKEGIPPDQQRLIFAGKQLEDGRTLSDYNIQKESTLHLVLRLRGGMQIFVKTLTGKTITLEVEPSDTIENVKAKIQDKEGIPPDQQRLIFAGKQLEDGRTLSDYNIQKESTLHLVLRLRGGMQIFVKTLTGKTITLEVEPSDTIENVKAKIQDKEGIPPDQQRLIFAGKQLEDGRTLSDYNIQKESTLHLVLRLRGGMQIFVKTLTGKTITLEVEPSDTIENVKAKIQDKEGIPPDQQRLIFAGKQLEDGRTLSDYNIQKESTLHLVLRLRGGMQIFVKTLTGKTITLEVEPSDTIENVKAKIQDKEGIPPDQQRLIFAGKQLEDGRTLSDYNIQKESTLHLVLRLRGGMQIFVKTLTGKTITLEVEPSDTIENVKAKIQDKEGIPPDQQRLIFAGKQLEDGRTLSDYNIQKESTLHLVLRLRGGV
# Chain of GST-Nedd8, Q15843 (Q15843 whole entry, looked up): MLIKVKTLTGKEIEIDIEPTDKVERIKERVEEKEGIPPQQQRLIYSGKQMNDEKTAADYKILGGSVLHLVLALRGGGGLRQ
# Chain of GST-ISG15, P05161 (P05161 1-157): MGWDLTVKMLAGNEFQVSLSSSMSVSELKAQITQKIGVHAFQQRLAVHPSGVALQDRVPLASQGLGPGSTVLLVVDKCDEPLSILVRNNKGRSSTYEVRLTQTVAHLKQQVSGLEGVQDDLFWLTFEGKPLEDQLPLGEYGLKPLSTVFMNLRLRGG
protein,measurement,setting,value
Uba3/APPBP1 (protein) chain 1: MADGEEPEKKRRRIEELLAEKMAVDGGCGDTGDWEGRWNHVKKFLERSGPFTHPDFEPSTESLQFLLDTCKVLVIGAGGLGCELLKNLALSGFRQIHVIDMDTIDVSNLNRQFLFRPKDIGRPKAEVAAEFLNDRVPNCNVVPHFNKIQDFNDTFYRQFHIIVCGLDSIIARRWINGMLISLLNYEDGVLDPSSIVPLIDGGTEGFKGNARVILPGMTACIECTLELYPPQVNFPMCTIASMPRLPEHCIEYVRMLQWPKEQPFGEGVPLDGDDPEHIQWIFQKSLERASQYNIRGVTYRLTQGVVKRIIPAVASTNAVIAAVCATEVFKIATSAYIPLNNYLVFNDVDGLYTYTFEAERKENCPACSQLPQNIQFSPSAKLQEVLDYLTNSASLQMKSPAITATLEGKNRTLYLQSVTSIEERTRPNLSKTLKELGLVDGQELAVADVTTPQTVLFKLHFTS chain 2: MAQLGKLLKEQKYDRQLRLWGDHGQEALESAHVCLINATATGTEILKNLVLPGIGSFTIIDGNQVSGEDAGNNFFLQRSSIGKNRAEAAMEFLQELNSDVSGSFVEESPENLLDNDPSFFCRFTVVVATQLPESTSLRLADVLWNSQIPLLICRTYGLVGYMRIIIKEHPVIESHPDNALEDLRLDKPFPELREHFQSYDLDHMEKKDHSHTPWIVIIAKYLAQWYSETNGRIPKTYKEKEDFRDLIRQGILKNENGAPEDEENFEEAIKNVNTALNTTQIPSSIEDIFNDDRCINITKQTPSFWILARALKEFVAKEGQGNLPVRGTIPDMIADSGKYIKLQNVYREKAKKDAAAVGNHVAKLLQSIGQAPESISEKELKLLCSNSAFLRVVRCRSLAEEYGLDTINKDEIISSMDNPDNEIVLYLMLRAVDRFHKQQGRYPGVSNYQVEEDIGKLKSCLTGFLQEYGLSVMVKDDYVHEFCRYGAAEPHTIAAFLGGAAAQEVIKIITKQFVIFNNTYIYSGMSQTSATFQL,activation in vitro (non-reducing gel); result: activated,"GST-Nedd8, Q15843",GST-Nedd8 is activated by Uba3/APPBP1 in vitro
GST-Ube1L (protein) MDALDASKLLDEELYSRQLYVLGSPAMQRIQGARVLVSGLQGLGAEVAKNLVLMGVGSLTLHDPHPTCWSDLAAQFLLSEQDLERSRAEASQELLAQLNRAVQVVVHTGDITEDLLLDFQVVVLTAAKLEEQLKVGTLCHKHGVCFLAADTRGLVGQLFCDFGEDFTVQDPTEAEPLTAAIQHISQGSPGILTLRKGANTHYFRDGDLVTFSGIEGMVELNDCDPRSIHVREDGSLEIGDTTTFSRYLRGGAITEVKRPKTVRHKSLDTALLQPHVVAQSSQEVHHAHCLHQAFCALHKFQHLHGRPPQPWDPVDAETVVGLARDLEPLKRTEEEPLEEPLDEALVRTVALSSAGVLSPMVAMLGAVAAQEVLKAISRKFMPLDQWLYFDALDCLPEDGELLPSPEDCALRGSRYDGQIAVFGAGFQEKLRRQHYLLVGAGAIGCELLKVFALVGLGAGNSGGLTVVDMDHIERSNLSRQFLFRSQDVGRPKAEVAAAAARGLNPDLQVIPLTYPLDPTTEHIYGDNFFSRVDGVAAALDSFQARRYVAARCTHYLKPLLEAGTSGTWGSATVFMPHVTEAYRAPASAAASEDAPYPVCTVRYFPSTAEHTLQWARHEFEELFRLSAETINHHQQAHTSLADMDEPQTLTLLKPVLGVLRVRPQNWQDCVAWALGHWKLCFHYGIKQLLRHFPPNKVLEDGTPFWSGPKQCPQPLEFDTNQDTHLLYVLAAANLYAQMHGLPGSQDWTALRELLKLLPQPDPQQMAPIFASNLELASASAEFGPEQQKELNKALEVWSVGPPLKPLMFEKDDDSNFHVDFVVAAASLRCQNYGIPPVNRAQSKRIVGQIIPAIATTTAAVAGLLGLELYKVVSGPRPRSAFRHSYLHLAENYLIRYMPFAPAIQTFHHLKWTSWDRLKVPAGQPERTLESLLAHLQEQHGLRVRILLHGSALLYAAGWSPEKQAQHLPLRVTELVQQLTGQAPAPGQRVLVLELSCEGDDEDTAFPPLHYEL,"activation in vitro (SDS-PAGE, Coomassie); result: activated","GST-ISG15, P05161","While it was active toward ISG15, as expected"
same,"activation in vitro (SDS-PAGE, Coomassie); result: not activated","GST-Ub, P0CG48",it failed to activate GST-Ub
Flag-tagged Uba6 (protein) MEGSEPVAAHQGEKASCSSWGTGSTNKNLPIMSTASVEIDDALYSRQRYVLGDTAMQKMAKSHVFLSGMGGLGLEIAKNLVLAGIKAVTIHDTEKCQAWDLGTNFFLSEDDVVNKRNRAEAVLKHIAELNPYVHVTSSSAPFNETTDLSFLDKYQCVVLTEMKLPLQKKINDFCRSQCPPIKFISADVHGIWSRLFCDFGDEFEVLDTTGEEPKEIFISNITQTNPGIVTCLENHPHKLETGQFLTFREINGMTGLNGSIQQITVISPFSFSIGDTTELEPYLHGGIAVQVKTPKTVFFESLERQLKHPKCLIVDFSNPEAPLEIHTAMLALDQFQEKYSRKPNVGCQQDSEELLKLATSISETLEEKPDVNADIVHWLSWTAQGFLSPLAAAVGGVASQEVLKAVTGKFSPLCQWLYLEAADIVESLGKPECEEFLPRGDRYDALRACIGDTLCQKLQNLNIFLVGCGAIGCEMLKNFALLGVGTSKEKGMITVTDPDLIEKSNLNRQFLFRPHHIQKPKSYTAADATLKINSQIKIDAHLNKVCPTTETIYNDEFYTKQDVIITALDNVEARRYVDSRCLANLRPLLDSGTMGTKGHTEVIVPHLTESYNSHRDPPEEEIPFCTLKSFPAAIEHTIQWARDKFESSFSHKPSLFNKFWQTYSSAEEVLQKIQSGHSLEGCFQVIKLLSRRPRNWSQCVELARLKFEKYFNHKALQLLHCFPLDIRLKDGSLFWQSPKRPPSPIKFDLNEPLHLSFLQNAAKLYATVYCIPFAEEDLSADALLNILSEVKIQEFKPSNKVVQTDETARKPDHVPISSEDERNAIFQLEKAILSNEATKSDLQMAVLSFEKDDDHNGHIDFITAASNPRAKMYSIEPADRFKTKRIAGKIIPAIATTTATVSGLVALEMIKVTGGYPFEAYKNCFLNLAIPIVVFTETTEVRKTKIRNGISFTIWDRWTVHGKEDFTLLDFINAVKEKYGIEPTMVVQGVKMLYVPVMPGHAKRLKLTMHKLVKPTTEKKYVDLTVSFAPDIDGDEDLPGPPVRYYFSHDTD,"activation in vitro, titration of GST-Nedd8, anti-Flag immunoblot; result: not activated","GST-Nedd8, Q15843",Uba6 activated GST-Ub but not GST-Nedd8
same,"activation in vitro, titration of GST-Ub, anti-Flag immunoblot; result: activated","GST-Ub, P0CG48",Uba6 activated GST-Ub but not GST-Nedd8
same,"ubiquitin activation in vitro (non-reducing SDS-PAGE, Coomassie); result: activated","GST-Ub, P0CG48",Uba6 could activate ubiquitin
same,"charging of purified Use1 (2.5 µM) with increasing Flag-Uba6, 25 µM ubiquitin, 2 mM ATP; result: charged",[1],Charging of purified Use1 by Uba6

# Source: patent publication US20100047255
